This note sets out measurements from PMC10196804 (The Journal of Biological Chemistry, 2023).

The assay has as its target T1, His-HERC2 (amino acids 2540–2700) (human, UniProt O95714 2540-2700).
T1 construct: source: E. coli BL21-CodonPlus (DE3)-RIPL, purified (nickel–nitrilotriacetic acid beads, PD-10 desalting)
T1 sequence (looked up): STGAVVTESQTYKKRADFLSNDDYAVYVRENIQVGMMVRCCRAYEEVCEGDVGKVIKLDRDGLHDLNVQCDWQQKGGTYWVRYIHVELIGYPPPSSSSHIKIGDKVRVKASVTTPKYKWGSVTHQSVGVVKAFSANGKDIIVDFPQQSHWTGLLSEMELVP
Nature of the assay: pull-down; GST-tagged proteins (2 μg) and His-HERC2 (amino acids 2540–2700) (2.8 μg) in 20 mM Tris–HCl pH 7.5, 150 mM NaCl, 0.1% Triton X-100, 1 mM DTT; Glutathione Sepharose beads, 1 h at 4 °C; gel stained with CBB. As to conditions: both partners purified.

Positions count from the first letter of the chain named.

B1: GST-NCOA4 (amino acids 383–522) C418S (domain or fragment, human, UniProt Q13772 383-522, looked up)
chain: SMVTEDWLVQNHQDPCKVEEVCRANEPCTSFAECVSDENCEKEALYKWLLKKEGKDKNGMPVEPKPEPEKHKDSLNMWLCPRKEVIEQTKAPKAMTPSRIADSFQVIKNSPLSEWLIRPPYKEGSPKEVPGTEDRAGKQK
notes: C418S; Absorption at 330 and 420 nm not attenuated (Fe–S cluster kept); source: E. coli BL21-CodonPlus (DE3)-RIPL, purified (Glutathione Sepharose, PD-10 desalting)
On to B1, for which the binding result is “binds”.

B2: GST-NCOA4 (amino acids 383–522) WT (domain or fragment, human, UniProt Q13772 383-522, looked up)
chain: B1 chain with S36C
notes: Vector pGEX6p-1; Bacteria were grown with Cys and FAC; the UV–visible spectrum resembles that of 2Fe–2S cluster proteins; also called glutathione S-transferase (GST)-fused NCOA4 (amino acids 383–522); source: E. coli BL21-CodonPlus (DE3)-RIPL, purified (Glutathione Sepharose, PD-10 desalting)
Consider B2, for which the binding result is “binds”.
